# Data published in patent US20230167200A1 (published 2023).
# T1: human PD-L2 expressed on CHO cells (CHO-hPD-L2 cells) (human, UniProt Q9BQ51 20-273)
# T1 chain: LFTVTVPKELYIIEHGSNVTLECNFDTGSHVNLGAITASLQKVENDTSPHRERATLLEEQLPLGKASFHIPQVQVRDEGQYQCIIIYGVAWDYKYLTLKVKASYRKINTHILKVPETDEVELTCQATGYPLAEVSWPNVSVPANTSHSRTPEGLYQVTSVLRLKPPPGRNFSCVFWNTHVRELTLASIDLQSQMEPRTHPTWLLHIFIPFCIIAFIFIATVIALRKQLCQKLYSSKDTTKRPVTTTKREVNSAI
# Columns and labels:
# [1] = molecular target: T1, human PD-L2 expressed on CHO cells …; experiment: flow cytometry cell binding
# [2] = molecular target: human PD-L1 expressed on CHO cells (CHO-hPD-L1 cells) (human, UniProt Q9NZQ7 19-290); experiment: flow cytometry cell binding
# human PD-L1 expressed on CHO cells (CHO-hPD-L1 cells), sequence (Q9NZQ7 19-290): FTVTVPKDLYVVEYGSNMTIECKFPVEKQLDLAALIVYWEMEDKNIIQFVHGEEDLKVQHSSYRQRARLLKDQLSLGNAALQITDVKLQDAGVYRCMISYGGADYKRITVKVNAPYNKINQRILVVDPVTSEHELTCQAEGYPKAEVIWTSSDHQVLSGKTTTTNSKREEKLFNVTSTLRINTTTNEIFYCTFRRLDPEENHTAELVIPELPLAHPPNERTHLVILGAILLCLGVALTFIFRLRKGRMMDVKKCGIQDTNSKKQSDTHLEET
binder,measurement,setting,value
"anti-PD-L1/PD-L2 bispecific antibody Fc fusion protein Bi-203-204 (bispecific antibody, V domains shown) V domain 1: QVQLVESGGGLVKPGGSLRLSCAASGHTFIIYAIGWFRQAPGKGLEFVATINWSGSMTNYADSVKGRFTISRDNAKNTVYLQMNSLKPDDTAVYYCAAYVGATISTAHSRYDYWGQGTLVTVSS V domain 2: EVQLVESGGGLVQPGGSLRLSCAASGRTFSSMTIGWFRQAPGKGLEFVSGIGWTSGLTVYADSVKGRFTISRDNAKNSMYLQMNSLRAEDTAVYYCAADSMNRGQFDYWGQGTLVTVSS",EC50,[1],1.25 nM
same,EC50,[2],3.79 nM
